The target in this experiment is HmenB3 monoclonal antibody against Neisseria meningitidis serogroup B capsular polysaccharide. Briefly: cell-based or functional assay.

B1: Naid60 anti-idiotypic monoclonal antibody (Ab2) to HmenB3 (antibody, IgG1, V domains shown)
VH: EVKLVESGGGLVQPGGSLKLSCATSGFLFTDYYMFWVRQTPEKRLEWVAYISNGGGDTYYPDTVKGRFTISRDNAKNALYLQMSRLKSEDTAMYYCARHKGYYGYYYALDYWGQGT
VL: DIQLTQSPATLSVTPGDSVSLSCRASQSISNNLHWYQQKSHESPRLLIKYASQSISGIPSRFSGSGSGTDFTLSINSVETEDFGMYFCQQSNNWPLTFGAGTK
Consider B1, for which the bacterial cell death rate (complement-mediated bactericidal activity of HmenB3 against NMGB) at 4 mg/L Naid60 was 57.7% and the bacterial cell death rate (complement-mediated bactericidal activity of HmenB3 against NMGB) at 40 mg/L Naid60 amounted to 0%.

The values above are taken from patent US7250164.
